For series [1], the target named is T1, CFP1 CXXC domain (Homo sapiens, UniProt Q9P0U4 161-222). The experiment in a line: ITC. A general note: Isothermal titration calorimetry measures the heat released or taken up as one component is titrated into another.
The target in a further series is CFP1 CXXC R213A (Homo sapiens, UniProt Q9P0U4 161-222, R213A). As to the kind of experiment: ITC.
The target of the next series is CFP1 CXXC Y216A (Homo sapiens, UniProt Q9P0U4 161-222, Y216A). As to the kind of experiment: ITC.
CFP1 CXXC Y216A, sequence (Q9P0U4 161-222 Y216A): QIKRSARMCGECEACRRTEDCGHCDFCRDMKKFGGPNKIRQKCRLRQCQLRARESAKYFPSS
For series [2], the target named is CFP1 CXXC domain, longer construct (Homo sapiens, UniProt Q9P0U4 152-222). The experiment in a line: ITC.
CFP1 CXXC domain, longer construct, sequence (Q9P0U4 152-222): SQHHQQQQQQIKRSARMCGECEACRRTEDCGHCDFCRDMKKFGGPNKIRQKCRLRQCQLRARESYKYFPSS
The target of series [3] is T1, CFP1 CXXC domain. As to the kind of experiment: EMSA. Background: A gel shift assay detects complexes by their altered migration in electrophoresis.
For series [4], the target named is T1, CFP1 CXXC domain. As to the kind of experiment: crystal structure.

T1 sequence (Q9P0U4 161-222): as the sequence (Q9P0U4 161-222 Y216A) above, with A56Y counted along it
CFP1 CXXC R213A, sequence (Q9P0U4 161-222 R213A): as the sequence (Q9P0U4 161-222 Y216A) above, with R53A, A56Y counted along it

B1: CCGG1 (dsDNA)
DNA 1: GCCACCGGTGGC
DNA 2: GCCACCGGTGGC
One may read the Kd as the free concentration of one partner at which half of the binding sites on the other are occupied at equilibrium, for simple one-to-one binding. As to B1, the dissociation constant Kd in the series with CFP1 CXXC domain [1] is 3.5 ± 0.3 µM; in the series with CFP1 CXXC R213A, 179 ± 30 µM; in the series with CFP1 CXXC Y216A it was 11 ± 2 µM; in series [2] it was 2.7 ± 0.3 µM.

B2: GCGG (dsDNA)
DNA 1: GCCAGCGGTGGC
DNA 2: GCCACCGCTGGC
In the case of B2, the affinity in the series with CFP1 CXXC domain [1], expressed as Kd, was 3 ± 0.2 µM.

B3: GC (GGCC), no CpG (dsDNA)
DNA 1: GCCAGGCCTGGC
DNA 2: GCCAGGCCTGGC
In the case of B3, the binding result with CFP1 CXXC domain [3] is given as “no binding”.

B4: ACGG (dsDNA)
DNA 1: GCCAACGGTGGC
DNA 2: GCCACCGTTGGC
B4 came in with an equilibrium dissociation constant (Kd) with CFP1 CXXC domain [1] of 2.5 ± 0.2 µM.

B5: TCGT (dsDNA)
DNA 1: GCCATCGTTGGC
DNA 2: GCCAACGATGGC
With B5, in the series with CFP1 CXXC domain [4], the binding result was “binds”.

B6: TCGA (dsDNA)
DNA 1: GCCATCGATGGC
DNA 2: GCCATCGATGGC
With B6, the binding result in the series with CFP1 CXXC domain [4] is given as “binds”.

B7: CCGG2 (dsDNA)
DNA 1: GCCCCCGGGGGC
DNA 2: GCCCCCGGGGGC
The molecule B7 came in with a Kd with CFP1 CXXC domain [1] of 4.4 ± 0.3 µM.

B8: ACGT (dsDNA)
DNA 1: GCCAACGTTGGC
DNA 2: GCCAACGTTGGC
On to B8, for which, in the series with CFP1 CXXC domain [4], the binding result is reported as “binds”.

The values above are taken from article PMC3072069.
